# Experimental data as given in the DeepSol protein solubility set.
# Experiment: soluble on expression in E. coli; label from the status in PepcDB or PDB records
row,Sequence,soluble on expression in E. coli
1,MQLVVARIGRAHGIKGEVTVEVRTDEPELRLGPGAVLATDPASTGPLTIESGRVHSGRLLLRFAGVHDRTGAEALRNTLLIADVDPDERPEDEDEYYDHQLIDLDVVTEDGTEVGRITEISHLPTQDLFVVERPDGSEVYVPFVSEIVTGIDLDAQRAVIDPPPGLIDDRAEIASARDAGAEDAGDEALEHHHHHH,soluble
2,MQNDNHSTAQPEKDVARLTEEVREAIAHGGDIENAIRNLTLKAMHSNGLDIESLKQIATAVMKGVQEGAQQKMTHAAEQSHAAQSQITQAVVGLDTAFAQLAGASKLALEEAASKAKQFSDSELTKAQADLKDLESVFLDTLKHTATAAQGLIAETLRDMLSHAQHNGTAVGMQLKDTLAVFAHQMASTGRAQFEAGVKLTQTTADLLYKISTGVLSGITSQTNRDDK,not soluble
3,MQNHVISLASAAERRAHIAATFGSRGIPFQFFDALMPSERLEQAMAELVPGLSAHPYLSGVEKACFMSHAVLWEQALDEGLPYIAVFEDDVLLGEGAEQFLAEDTWLEERFDKDSAFIVRLETMFMHVLTSPSGVADYGGRAFPLLESEHCGTAGYIISRKAMRFFLDRFAVLPPERLHPVDLMMFGNPDDREGMPVCQLNPALCAQELHYAKFHDQNSALGSLIEHDRRLNRKQQWRDSPANTFKHRLIRALTKIGREREKRRKRREQTIGKIIVPFQLEHHHHHH,soluble
4,MQNQYFTVQENYKERFYQIPKVFFTSENYKNLTNDMKIAYAILRDRLNLSIKNSWVDEDGNIYFVYSNEKLMEILNCKKEKLTKIKKGLENDGLLIQKRRGLNKPNILYLMKPIVTERDIYKIEKEENDVEPYGEKEVRKSNVQKFENRTSRSSKIERPEVRKSNTNDTDFNDIDFNDTENNDMNDLNDIKYKNEISNHSNHSNQFTHNFDDKEMLLQEFPEQLTNYLLKYDYRDLEIIKAVILKAKKSFNSRHEDMHYMLEDIEDEILTSLKRLKKAIHDRGVKGQKETIKSMQAYLMQTILTELEETHALYMRRKNMKQYNIFNQ,soluble
5,MQPDLHCRTLAAHTLKHFRALSPLTHCMTNDVVQTFTANTLLALGASPAMVIDPVEARPFAAIANALLINVGTLTASRADAMRAAVESAYDAKTPWTLDPVAVGALEFRRRFCLDLLSLRPAAIRGNASEILALSGMALGGRGVDTTEAALAALPAAQALARQIDCIVVVTGEIDYVTNGQRTLSIPGGDPLMTRIVGTGCALSAVVAASCALPGAALDNVASACCWMKLAGQAAAERSEGPGSFIPAFLDALYHLDVEAANATN,not soluble
6,MQPLERSLTGAVGAALAAAGLRSRSGLEKVVLTGLGAGLIAVAARGQNPLATALKIEQNDEGETVVRDAVTIGKPAEQLYAVWRDLPGLPLLMTHLRSVEVLDDKRSRWTVEAPAPLGTVSWEAELTADEPGKRIAWRSLPGARIENSGEVLFRPAPGARGTEVVVRLTYRPPGGSAGAVIARMFNQEPSQQLRDDLMRFKREQELGLEHHHHHH,not soluble
7,MQPLPDPKPNTQKEHHPVDRNFIAMIDDLKTTQIPWQKPGHIMTEDEQKMWNATRMREYRRKSNETLEKSKSMLDGLKSQCTVNTVVLKNMLITKSVEDSVKLNAARFLGKSEKELMDIPEIKQMFQQYWNCRKTASNSHYEQRSLIYLDRVVSLQTEYLNYKANRNDSRSPSQLVKKIKDATMKAEAYEFFMDDKRVRKVIGELNEIDSKFKENIGAWLLQQLKIDSSLSHLLST,not soluble
8,MQPSFRIVADGTDVTQRLNDRLLKLTLLDKPGMESDSLTLRIDDRDGQVALPRRGAVLEVHLGYAGEPLMRMGRFTVDTLQWAGPPDCLTVTAKAGDMRGSGKTIRSGGWEGTTLAQVCRDVGARNGWRVECPLQVAIARVDQVNESDYHFVTRLARQYDCTAKLAEGMLMVLPRQSGQSATGRRIEPLVLGRADVGSFDVTFDDRSLMRTVKTRYQLPGSGEVKSVELKNPKAPATAMGEHVDRHLYTSRGEAEQAAKARLASFSRSSASVRLELPGRGDLFAERSLLLQGFKAGIDGEFLIDSVEHTYSSSGWTTVVQCNGGRGGKG,not soluble
9,MQPYTAPSEIALRQLDYFADKHVLVAGEVEDRFPIELRQYCASVSVFTTHYGYYSQLKAYPEITRYFGEQLTADLNADLILLYWPKAKQEAEYLLAMLLAKLGTGTEIVVVGENRSGVKSIEKMFAAYGPIHKYDSARRCSFYWGHCVHTPAAFDIEQWFKSYAVDYQGHELTIRSLPGVFSHGEFDLGSRLLLDTLPPLSGKVIDIGSGAGVLGCVMAKLNPHIELEMTDISALAIRSSQETLVANQLHGHVYPSDMFSDTGHHYNYIVTNPPFHSGLETSYSATERLLAESVDHLASGGSIWVVANSFLKYPPILEQAFGHCDIAAKTNKFAIYHAKK,not soluble
10,MQQANLGDGVATARLLSRSDWGARLPKSVEHFQGPAPYVIIHHSYMPAVCYSTPDCMKSMRDMQDFHQLERGWNDIGYSFGIGGDGMIYTGRGFNVIGAHAPKYNDKSVGIVLIGDWRTELPPKQMLDAAKNLIAFGVFKGYIDPAYKLLGHRQVRDTECPGGRLFAEISSWPHFTHINDTEGVSSTTAPVVPHVHPQAAAPQKPHQSPPAAPKV,soluble
11,MQQFHIRRLREEDIPLLKGLLVELDTSHYEAEPNFYRSPEEMAQLREERGVFDKYFDDSMIAFIACSHRQVVGFISGTVRDIDSMVSVAKRVGFVNELVVSESHRNLGIGLSLMDKIESDLCNQGIEEIGLTVASFNHEGEDFYHKMGYRVMTKMMSKRVKDLEHHHHHH,soluble
12,MQRCDWVSQDPLYIAYHDNEWGVPETDSRKLFEMICLEGQQAGLSWITVLKKRENYRACFHQFDPIRIAAMQEEDVERLLQNTGIIRHRGKIQAIISNARAWLAMEQNGESFADFVWSFVDGQPQITQAASLDKIPTSTPASDALAKALKKRGFKFVGTTICYSFMQACGLVNDHITGCFCHPG,soluble
13,MQRYLWQQADGKRHVYDTARHRVQAGRPFTALCGETVTPQTERGDLTAGLWFDGECPVCTIALAKALGWPVREISDLAHRFDWSPALITRLAEVLHCSFGEVVELTGARMVDA,not soluble
14,MQRYNSTYVVKRDGRKEDVHFDKITSRIQKLSYGLNMDFVDPVAVAIKVISGLYKGVTTVELDNLAAETAASMTTQHPEYALLAARIAVSNLHKKTNKVFSEVMKTLHEFHHPHTGKHAPMISDETWAIIEKNADKLNSAIVYDRDYSYTYFGFKTLERSYLLKINKEIVERPQQMLMRVSIGIHGDDITSAIETYNLMSERYMTHASPTLFNSGTCRPQMSSCFLLTMSEDSILGIYDTLKQCALISKSAGGIGLNVHKIRATGSVIAGTNGTSNGLIPMLRVYNNTARYVDQGGNKRPGAFAIYLEPWHADIFEFVSLRKNTGPEEERARDLFLALWIPDLFMKRVEKDQEWSLMCPCECPGLDDCWGEEFEALYAKYEAEGRVRKTVKARKLWEHIVSNQIETGLPYITYKDAANRKSNQQNLGTIKCSNLCTEIIEYSAPDEIAVCNLASIALNRYVTPEKKFDFVKLAEVTKVITRNLNKIIDVNYYPVEEARNSNMRHRPIGLGVQGLADCFMLMRYPFTSAEARDLNKRIFETIYYAALEASCELAELNGPYSTYEGSPVSKGQLQFDMWGVTPTDQCDWATLRKKIAKHGIRNSLLMAPMPTASTAQILGNNESIEPYTSNIYSRRVLSGDFQIVNPHMLKDLVERGLWTDEMKNRLIANNGSIQNIDGIPSDIKELYRTVWEISQKDIIEMAADRGAYIDQSQSLNIHMAKPSYAGITSMHFYGWKKGLKTGMYYLRTKPAVNAVQFTVDKNALKTNQQAETPATVAESQDEGCLMCSG,not soluble
15,MQSEKIAQLKAALQNFSASNSDLFDYALEEEKAKVRKRALLLLDQRARSVYELTNRLISADFDPNIVEYVVEDLVRANLLNDENFSREWVRQRRQRRGKSRQALTRELRDKGIKSEIIADVVGDIQPEDEQDIARELAYKKVRSLKKEPCDYPEYQKVLRRTVGVLARRGFSQSMALEIAREAIDARIDEIRR,not soluble
16,MQSQRAYELIKAEIFKRLGVNRTDAYKDSYLQRRIRARMRKLGISDYMEYYKILKSNKEEFEELLLTIAINVTEFFRDPIVWKTFQNKILPELVQFKKSKGFRSIKIWSAACSTGQEPYSIAMTLYEVLGENLGGFRVSILATDIDKEALQIAMRGEYPVDAVEKQVPRHMIYKYFDRISEERYRIKPHVKRLVTFRWFNLLSSIYPKGFDVIFIRNVLIYMSKEAQEDIFRKLYDSLEDHGYLILGKTETILGRSANLFKLYDLVAKVYKKNLGVKGNG,soluble
17,MQSVELPETHQMLLQTCRDFAEKELFPIAAQVDKEHLFPAAQVKKMGGLGLLAMDVPEELGGAGLDYLAYAIAMEEISRGCASTGVIMSVNNSLYLGPILKFGSKEQKQAWVTPFTSGDKIGCFALSEPGNGSDAGAASTTARAEGDSWVLNGTKAWITNAWEASAAVVFASTDRALQNKSISAFLVPMPTPGLTLGKKEDKLGIRGSSTANLIFEDCRIPKDSILGEPGMGFKIAMQTLDMGRIGIASQALGIAQTALDCAVNYAENRMAFGAPLTKLQVIQFKLADMALALESARLLTWRAAMLKDNKKPFIKEAAMAKLAASEAATAISHQAIQILGGMGYVTEMPAERHYRDARITEIYEGTSEIQRLVIAGHLLRSYRSAENLYFQ,soluble
18,MQSVLNLGKTTVTTCTFLRAASTSLQGKGPLKTNWKENVVYLYQFPRPANRQPNLSPYCLKIETFLRANRIKHEVVGTWLTLRQSPRGLLPFIELNGQQISDSQVIVWKLQKHFDLDDKLEGSDRGTARAVERMIDLSTNYALLVDKTVNNAHLLLARQVSNLPLPSFLTNYLAKGFSQTARKRVNGVLGKLDVAEQKELLRRDIRAIDDILGDKKFLFGDRITSVDCSVFGQIGAVFYLPYRQQISDLLEDDFPRVRAYCDRIRQHYYPEWRDD,not soluble
19,MQTFNRERLEFALDKRGCTQTKLAELLGITARQVRNYVKDEQIPDLNELANLLEFPVHFFTNDERLPELKSQAVSFRARSRTSKRLEKQALNHSITAFLLNDWLETEFTLSQAVLPDFSDISPEEAAQELRLEWGLGNEPIPNMITLLEVKGVRVFSLSLDTKDIDAFCTWYENHPFVFLNTQKSAERSRFDAAHELGHLIRDKYSMEHSKNSEITEDEPRDIIEKEANAFASAFLMPEAALRLYRHVPITIENLLKIKRRFGVSLVALAYRMHKLGMITDRMYIHNLCPLFAKKKYRTIEPEPMEREISSALRKMLTILKNDGIGIEQIAENLNVSPKDVADLTFGLVERDLNRYRKLRLVK,not soluble
20,MQTLKSDIRNRILSAAKEQFMQRGYLKTSMREIADAVDVGVGNLYNYFENKDELFCVILRPVSDALERMLQEHHGAKGADIMLICSEEYLKSAVDEYISLINKHGELMKILLFHSQGSSLETFREDYTNRSTEIVKTWFAEMKEKHPEINVVVSDFMIHLQAVWMFTLFEEMLKHAIDSKEMEYIVHEYILFEIQGWRALLRV,not soluble
21,MQTPSKKYVVDIWSDFVCPWCWIAKRRFENALNRSGMQDDVQVNVRAYRLAANQAPEPMIGALKRKLGNPASADSMMSTVSKYGRADGLDYRFDTMMFGDTADAHILVKAVEDTAVKKRLVEALYEQSTSHGRSLFDRSSLEAIAREVGVSDESIQLAWSSVELRNEMKDDESFAAQLGSGVPLFVFDSSFSVSGAQPDAVFLEALNKMVANSNPEDSSMMGQVCSIDGCKVLEHHHHHH,not soluble
22,MQVSDLFIREMPSDCLPRERLLAIGEKALSNQELLAILLRTGSKEADVMTVAATLLKQFKQLSYLQQATLNELMAIKGIGQVKAIELRAAIELGCRIYQSSQIKFGKVTSSQQVAQRLLQEMKGLQQEHLICIYLNTKNDIIQQKTIFKGSLNQSIAHPREIFREAVKYSSARILLAHNHPSGNPTPSPQDIQFTKRMEECGEMMGIQLLDHIILGDSGYISLREENFFASE,not soluble
